In US20160143985:

Assays:
[1] = biological target: alpha-synuclein, wild-type full-length human (140 amino acids)
[2] = biological target: T1, Ac-YVAD-AMC (model substrate, from Enzo, Inc.)
T1 chain: YVAD

B1: caspase-1 (ICE; interleukin-1-beta converting enzyme), purified, activated (protein)
chain: NPAMPTSSGSEGNVKLCSLEEAQRIWKQKSAEIYPIMDKSSRTRLALIICNEEFDSIPRRTGAEVDITGMTMLLQNLGYSVDVKKNLTASDMTTELEAFAHRPEHKTSDSTFLVFMSHGIREGICGKKHSEQVPDILQLNAIFNMLNTKNCPSLKDKPKVIIIQACRGDSPGVVWFKDSVGVSGNLSLPTTEEFEDDAIKKAHIEKDFIAFCSSTPDNVSWRHPTMGSVFIGRLIEHMQEYACSCDVEEIFRKVRFSFEQPDGRAQMPTTERVTLTRCFYLFPGH
Western blot of ICE digested alpha-synuclein with increasing amounts of ICE (2 to 12 µg) [1]: Appearance of a smaller fragment of synuclein below 17 kD with intensity increasing with amount of ICE
cleavage of alpha-synuclein in vitro (SDS-PAGE and western blot with anti-synuclein antibody) [1]: Purified, activated caspase-1 does indeed cleave alpha-synuclein
activity against a model substrate [2]: 110 µM/min/mg
